Data reported in patent US20140350088A1.

Molecular target: human C5a receptor (human) (UniProt P21730)
Assay: cell-based or functional assay

Sequence of human C5a receptor (human) (P21730 whole entry): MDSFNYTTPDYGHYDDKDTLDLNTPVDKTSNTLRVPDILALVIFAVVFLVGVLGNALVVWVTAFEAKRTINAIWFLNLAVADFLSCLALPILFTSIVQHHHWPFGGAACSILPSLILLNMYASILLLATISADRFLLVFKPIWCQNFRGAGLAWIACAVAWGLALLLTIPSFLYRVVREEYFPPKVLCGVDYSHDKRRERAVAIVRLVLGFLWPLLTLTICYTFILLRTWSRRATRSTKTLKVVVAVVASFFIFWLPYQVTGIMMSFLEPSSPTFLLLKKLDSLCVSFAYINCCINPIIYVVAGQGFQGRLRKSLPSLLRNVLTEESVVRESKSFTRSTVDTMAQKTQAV

Substance	half-maximal effective concentration (EC50) in chemotaxis assay of BA/F3/huC5aR cells
mouse C5a (from UniProt P06684 679-755) (ligand)	300 pM
recombinant human C5a (from UniProt P01031 678-751) (ligand)	100 pM
